The record followed here is publication PMC4892619.

Series [1] relates to CsrA-His6 (Campylobacter jejuni 81-176). In words: EMSA. To be noted: 10 mM Tris-HCl pH 7.5, 10 mM MgCl2, 100 mM KCl, 32.5 ng yeast RNA, 20 mM DTT, 7.5% glycerol, 4 U RNase inhibitor, 10 ul, 30 min at 37 C; 15% native PAGE.
For series [2], the target named is T1, CsrA-His6 (Campylobacter jejuni 81-176) (UniProt Q0P9F1).
T1 sequence: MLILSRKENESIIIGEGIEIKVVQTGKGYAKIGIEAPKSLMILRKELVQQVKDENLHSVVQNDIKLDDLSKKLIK
In words: EMSA. To be noted: 10 mM Tris-HCl pH 7.5, 10 mM MgCl2, 100 mM KCl, 32.5 ng yeast RNA, 20 mM DTT, 7.5% glycerol, 4 U RNase inhibitor, 10 ul, 30 min at 37 C; 15% native PAGE.

On to flaA mRNA 5' end transcript, for which, in series [1], the Kd stood at 6.53 nM.

As to “GGGUAUAAAUUUUUAAAAAAAAGUAACGAUAUAGCAUUUAACAAGCUCAUGGAUGAGUUUGAAAUUAUUUAAAAGGAUUUAAA [flaA mRNA 5' end transcript]”, in series [2], the dissociation constant Kd turned out to be 6.53 nM.
